The text below walks through data of patent publication US8133978 (GlaxoSmithKline, dated 2012).

Test [1] concerns the target T1, Human interleukin-18 (recombinant human IL-18) (human, UniProt Q14116 37-193).
T1 construct: also called hIL-18
T1 sequence: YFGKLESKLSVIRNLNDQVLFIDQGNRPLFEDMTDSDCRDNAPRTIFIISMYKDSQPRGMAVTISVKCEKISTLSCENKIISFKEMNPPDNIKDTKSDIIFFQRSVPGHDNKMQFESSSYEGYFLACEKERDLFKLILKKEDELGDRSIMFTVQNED
In words: SPR, Biacore 3000, antibody captured on Protein A, 25 C. As for the experimental part: Biacore™ kinetic analysis of the humanised 2C10 antibodies was carried out on a Biacore™ 3000 instrument using Protein A capture of the antibodies in HBS-EP buffer (Biacore™). Briefly, Protein A was immobilised on a CM5 chip by primary amine coupling, using manufacturers recommended protocol, to densities around 2000-4000 resonance units (RU's). Humanised antibody was then passed over the Protein A surface and captured to levels of around 200-500 RU's, after a period of stabilisation, IL-18 (human or Rhesus) was passed over the captured antibody surface at defined concentrations and binding sensorgrams were obtained. […] All curves were double referenced against a buffer injection instead of IL-18 and the data was fitted to the 1:1 binding model using the global fit parameters in BiaEval 4.1. Off-rate ranking experiments were set up using the same Protein A capture method, however, only a single concentration of IL-18 was used (10 nM). Whilst the data was fitted using the same binding model as the kinetic analysis, since only one concentration of analyte was used on the off-rate is reported, this value is useful for ranking rather than giving an exact kinetic measurement and was used as a way of selecting which antibodies would be further investigated. […]
A general note: Surface plasmon resonance follows binding to a sensor surface in real time, without labels.

The target in test [2] is T2, Rhesus IL-18 (rhesus (rhesus/cynomolgus)).
T2 construct: also called Rhesus/Cynomolgus IL-18; rhesus/cynomolgus IL-18
Described as above. As to the method:
(§1) Biacore™ kinetic analysis of the humanised 2C10 antibodies was carried out on a Biacore™ 3000 instrument using Protein A capture of the antibodies in HBS-EP buffer (Biacore™). Briefly, Protein A was immobilised on a CM5 chip by primary amine coupling, using manufacturers recommended protocol, to densities around 2000-4000 resonance units (RU's). Humanised antibody was then passed over the Protein A surface and captured to levels of around 200-500 RU's, after a period of stabilisation, IL-18 (human or Rhesus) was passed over the captured antibody surface at defined concentrations and binding sensorgrams were obtained. […] All curves were double referenced against a buffer injection instead of IL-18 and the data was fitted to the 1:1 binding model using the global fit parameters in BiaEval 4.1. Off-rate ranking experiments were set up using the same Protein A capture method, however, only a single concentration of IL-18 was used (10 nM). Whilst the data was fitted using the same binding model as the kinetic analysis, since only one concentration of analyte was used on the off-rate is reported, this value is useful for ranking rather than giving an exact kinetic measurement and was used as a way of selecting which antibodies would be further investigated.
(§2) Based upon these observations selected antibodies were investigated in greater detail for binding to human and Rhesus IL-18 at 37° C. The data shown in Table 4b for human IL-18 is the mean (and standard deviation) of six separate determinations.

Test [3] concerns the target T1, Human interleukin-18 (recombinant human …). In words: ELISA, human IL-18 captured by 16D10, antibody titrated. As for the experimental part:
ELISA with all nine humanised variants was carried out at least 6 times using various batches of purified antibody preparation. FIGS. 4A-4C show representative data from one experiment which generated the EC50 value ranking illustrated in Table 7. Human IL-18 was immobilized on Nunc Maxisorp 96-well plates using 2.5 µg/ml of 16D10 (non-neutralising mouse monoclonal antibody) to capture 5 ng/ml of recombinant human IL-18. Anti-IL-18 humanised antibodies were added at various dilutions. Bound humanised antibodies were detected using anti-human IgG Fc specific peroxidase conjugate (Sigma A0170).

The target is the same in test [4]. The test is described as follows: cell-based or functional assay.
The target is the same in test [5]. In words: SPR, Biacore T100, Protein A capture, 25 C, mean n = 4. As to the method:
(§3) The methodology was basically the same as for the method used in Example 4a above; Protein A was immobilised on a CM5 chip at densities of between 2000-6000 RU's by primary amine coupling. Runs were carried out in HBS-EP (Biacore™). The anti-IL-18 antibodies were captured to densities of between 100-500 RUs, human IL-18 was passed over this captured surface at concentrations between 16-0.0625 nM, with 0 nM concentration (i.e., a buffer only injection of captured antibody) used for double referencing. Regeneration after each injection of IL-18 was by mild acidic elution using two injections of 10 mM glycine, pH1.5. […] The binding curves obtained were analysed using the analysis software inherent to the T100 machine using the 1:1 model of binding. Runs were carried out at the temperatures indicated.
(§4) These experiments were carried out as described above. Table 6 details the kinetic parameters obtained. […] H1L2 has a better on-rate (ka) than H1L1.

Test [6] has the same target. The test is described as follows: SPR, Biacore T100, Protein A capture, 37 C, mean n = 6. As to the method: as §3, §4
For test [7] the target is unchanged. The test is described as follows: SPR, Biacore T100, antibody captured on Protein A, 15 C.
For test [8] the target is unchanged. In words: SPR, Biacore T100, antibody captured on Protein A, 20 C. As to the method: as §3
(§5) This experiment was carried out using the above method at various temperatures. […] Table 5 details the kinetic values used to create these figures.

Test [9] has the same target. The test is described as follows: SPR, Biacore T100, antibody captured on Protein A, 25 C. As for the experimental part:
as §3, §5

Test [10] has the same target. In words: SPR, Biacore T100, antibody captured on Protein A, 32 C. As for the experimental part:
as §3, §5

Test [11] shares this target. The test is described as follows: SPR, Biacore T100, antibody captured on Protein A, 37 C. As for the experimental part: as §3, §5
The target is the same in test [12]. The test is described as follows: ELISA, antibody on plate, human IL-18 captured, detected by 16D10; 37 C, in serum. As for the experimental part:
(§6) ELISA was carried out with the three Humanised H1 variants; H1L1, H1L2 and H1L3 to assess binding to human IL-18 at room temperature and at 37° C. in both human serum and in block solution (PBS 0.05% TWEEN with 1% BSA (w/v)). The Humanised antibody variants were immobilised on Nunc Maxisorp 96-well plates at 2.5 µg/ml. Capture of 5 ng/ml of recombinant human IL-18 was carried out either at room temperature or 37° C. in human serum or block solution. Anti-IL-18 mouse monoclonal antibody 16D10 was added. The bound mouse antibody was detected using anti-mouse kappa peroxidase conjugate (Serotec MCA 1291P). Representative EC50 values generated from the study data are illustrated in Table 9.
For orientation: An ELISA detects its analyte on a solid surface through an enzyme-linked reagent.

For test [13] the target is unchanged. In words: ELISA, antibody on plate, human IL-18 captured, detected by 16D10; 37 C, blocking buffer. As to the method:
as §6

For test [14] the target is unchanged. The test is described as follows: ELISA, antibody on plate, human IL-18 captured, detected by 16D10; room temperature, in serum. As for the experimental part:
as §6

The target is the same in test [15]. The test is described as follows: ELISA, antibody on plate, human IL-18 captured, detected by 16D10; room temperature, blocking buffer. As to the method:
as §6

The target is the same in test [16]. In words: SPR, Biacore 3000, antibody captured on Protein A, 37 C. As to the method:
as §1, §2

Test [17] has as its target T2, Rhesus IL-18. Described as above. As for the experimental part: as §1, §2
For test [18], the target named is T2, Rhesus IL-18. The test is described as follows: Rhesus IL18 binding ELISA, antibody titrated, OD 490 nm.

B1: H2L2 humanised anti-IL-18 antibody (antibody, human IgG1, kappa, V domains shown)
VH: QVQLVQSGAEVKKPGASVKVSCKVSGEISTGYYFHWVRRRPGKGLEWMGRIDPEDDSTKYAERFKDRVTMTEDTSTDTAYMELSSLRSEDTAVYYCTTWRIYRDSSGRPFYVMDAWGQGTLVTVSS
VL: DIQMTQSPSSVSASVGDRVTITCLASEDIYTYLTWYQQKPGKAPKLLIYGANKLQDGVPSRFSGSGSGTDYTLTISSLQPEDFATYYCLQGSKFPLTFGQGTKLEIKR
notes: Human IgG1 / kappa
With B1, the Kd was found to be 0.0201 nM in [1] and 0.104 nM in [2]. Further, the concentration for a half-maximal effect (EC50) in [3] turned out to be 0.012 µg/mL.

B2: H1L1 humanised anti-IL-18 antibody (antibody, human IgG1, kappa, V domains shown)
VH: QVQLVQSGAEVKKPGASVKVSCKVSGEISTGYYFHWVRQAPGKGLEWMGRIDPEDDSTKYAERFKDRVTMTEDTSTDTAYMELSSLRSEDTAVYYCTTWRIYRDSSGRPFYVMDAWGQGTLVTVSS
VL: DIQMTQSPSSVSASVGDRVTITCLASEDIYTYLTWYQQKPGKAPKLLIYGANKLQDGVPSRFSGSGSGTDFTLTISSLQPEDFATYYCLQGSKFPLTFGQGTKLEIKR
notes: Human IgG1 / kappa
In the case of B2, the “% change vs 2C10 (IC50, KG-1 bioassay)” value in test [4] amounted to 269%. In addition, the Kd in test [5] was determined as 0.0331 nM; in test [6], 0.0943 nM; in test [1] it was 0.0332 nM; in test [2] it was 0.38 nM; in test [7] it was 0.0201 nM; in test [8] it was 0.0237 nM. The Kd in test [9] worked out at 0.0311 nM; in [10], 0.0472 nM; in [11], 0.0533 nM. Also, the EC50 in test [3] was found to be 0.01 µg/mL; in test [12] it was 0.0121 µg/mL; in test [13], 3.43 ng/mL; in test [14] it was 0.0102 µg/mL; in [15] it was 3.31 ng/mL.

B3: H2L1 humanised anti-IL-18 antibody (antibody, human IgG1, kappa, V domains shown)
VH: QVQLVQSGAEVKKPGASVKVSCKVSGEISTGYYFHWVRRRPGKGLEWMGRIDPEDDSTKYAERFKDRVTMTEDTSTDTAYMELSSLRSEDTAVYYCTTWRIYRDSSGRPFYVMDAWGQGTLVTVSS
VL: DIQMTQSPSSVSASVGDRVTITCLASEDIYTYLTWYQQKPGKAPKLLIYGANKLQDGVPSRFSGSGSGTDFTLTISSLQPEDFATYYCLQGSKFPLTFGQGTKLEIKR
notes: Human IgG1 / kappa
With B3, the Kd in test [1] was 0.0335 nM; in test [2] it was 0.627 nM. The EC50 in [3] came out at 0.021 µg/mL.

B4: H3L1 humanised anti-IL-18 antibody (antibody, human IgG1, kappa, V domains shown)
VH: QVQLVQSGAEVKKPGASVKVSCKVSGEISTGYYFHFVRRRPGKGLEWMGRIDPEDDSTKYAERFKDRVTMTADTSTDTAYMELSSLRSEDTATYFCTTWRIYRDSSGRPFYVMDAWGQGTLVTVSS
VL: DIQMTQSPSSVSASVGDRVTITCLASEDIYTYLTWYQQKPGKAPKLLIYGANKLQDGVPSRFSGSGSGTDFTLTISSLQPEDFATYYCLQGSKFPLTFGQGTKLEIKR
notes: Human IgG1 / kappa
As to B4, the Kd in test [1] turned out to be 0.0194 nM; in test [2], 0.149 nM. Besides, in [3], the EC50 was 0.013 µg/mL.

B5: H3L2 humanised anti-IL-18 antibody (antibody, human IgG1, kappa, V domains shown)
VH: QVQLVQSGAEVKKPGASVKVSCKVSGEISTGYYFHFVRRRPGKGLEWMGRIDPEDDSTKYAERFKDRVTMTADTSTDTAYMELSSLRSEDTATYFCTTWRIYRDSSGRPFYVMDAWGQGTLVTVSS
VL: DIQMTQSPSSVSASVGDRVTITCLASEDIYTYLTWYQQKPGKAPKLLIYGANKLQDGVPSRFSGSGSGTDYTLTISSLQPEDFATYYCLQGSKFPLTFGQGTKLEIKR
notes: Human IgG1 / kappa
With B5, the Kd stood at 0.0165 nM in test [1], 0.0596 nM in [2], 0.105 nM in [16] and 0.0643 nM in test [17]. Moreover, the EC50 in test [3] stood at 0.008 µg/mL.

B6: H3L3 humanised anti-IL-18 antibody (antibody, human IgG1, kappa, V domains shown)
VH: QVQLVQSGAEVKKPGASVKVSCKVSGEISTGYYFHFVRRRPGKGLEWMGRIDPEDDSTKYAERFKDRVTMTADTSTDTAYMELSSLRSEDTATYFCTTWRIYRDSSGRPFYVMDAWGQGTLVTVSS
VL: DIQMTQSPSSVSASVGDRVTITCLASEDIYTYLTWYQQKPGKAPQLLIYGANKLQDGVPSRFSGSGSGTDYTLTISSLQPEDEGDYYCLQGSKFPLTFGQGTKLEIKR
notes: Human IgG1 / kappa
On to B6, for which the Kd in test [1] was determined as 0.0242 nM; in [16] it was 0.11 nM; in [17], 0.0756 nM. Further, the EC50 in [3] came to 0.009 µg/mL. For the same molecule, the concentration for a half-maximal effect (EC50 (read off the curve)) in [18] was ~0.03 µg/mL.

B7: H2L3 humanised anti-IL-18 antibody (antibody, human IgG1, kappa, V domains shown)
VH: QVQLVQSGAEVKKPGASVKVSCKVSGEISTGYYFHWVRRRPGKGLEWMGRIDPEDDSTKYAERFKDRVTMTEDTSTDTAYMELSSLRSEDTAVYYCTTWRIYRDSSGRPFYVMDAWGQGTLVTVSS
VL: DIQMTQSPSSVSASVGDRVTITCLASEDIYTYLTWYQQKPGKAPQLLIYGANKLQDGVPSRFSGSGSGTDYTLTISSLQPEDEGDYYCLQGSKFPLTFGQGTKLEIKR
notes: Human IgG1 / kappa
Regarding B7, the Kd in [1] was 0.0238 nM. Further, the EC50 in test [3] is 0.016 µg/mL.

A word on the Kd: it is the equilibrium constant for the complex coming apart. The EC50 is the concentration at which the effect is half-maximal. Broadly, the EC50 (read off the curve) is the midpoint of the concentration-response curve. High values mean a less potent agent, low ones a more potent agent.
